Data published in paper PMC10319729.

Biological target: LGR4 co-expressed with ZNRF3ΔRING on HEK293T cells (LGR4-E3 ligase complex), Q9BXB1

- EC50 of TOPFlash (Wnt/β-catenin reporter) activity in STF cells, which endogenously express LGR4, RNF43 and ZNRF3: 0.79 nM
B1: RSPO2 furin domain with a C-terminal His tag (R2Fu-His), Q6UXX9 37-143 (domain or fragment)
chain: NPICKGCLSCSKDNGCSRCQQKLFFFLRREGMRQYGECLHSCPSGYYGHRAPDMNRCARCRIENCDSCFSKDFCTKCKVGFYLHRGRCFDECPDGFAPLEETMECVE
